# Measured values taken from publication doi:10.1101/2025.11.17.688798, “Engineering directional phosphoryl flow enables programmable signaling dynamics in bacteria” (bioRxiv, 2025).
# B1: Spo0B (enzyme, B. subtilis, UniProt P06535 1-192, looked up)
# chain: MKDVSKNQEENISDTALTNELIHLLGHSRHDWMNKLQLIKGNLSLQKYDRVFEMIEEMVIDAKHESKLSNLKTPHLAFDFLTFNWKTHYMTLEYEVLGEIKDLSAYDQKLAKLMRKLFHLFDQAVSRESENHLTVSLQTDHPDRQLILYLDFHGAFADPSAFDDIRQNGYEDVDIMRFEITSHECLIEIGLD
# notes: Spo0B, sporulation phosphotransferase of B. subtilis; Two protomers of Spo0B stand in the complex; the Spo0B dimer of PDB 1IXM was the search probe; also called phosphotransferase Spo0B; transferase; source: E. coli BL21 (DE3) pLysS, purified (HisTrap IMAC, TEV cleavage, reverse IMAC, Superdex 75 SEC); not shown: His6, N-terminal, cleaved
# Tests used:
# [1] = biological target: B1; assay: crystal structure; purified Spo0B and Spo0A-REC mixed at 1:1.1 equivalents with 10 mM MgCl2 in 20 mM Tris-HCl pH 8.0, 0.1 M NaCl; sitting-drop vapour diffusion at 293 K; two crystal forms, 2.1 and 3.5 Å; details: both partners purified
# [2] = biological target: the molecule itself; assay: as above
stoichiometry N [1],Binder,binding result [2]
1 RR per phosphotransferase chain (printed as 2:2),"Spo0A-REC (domain or fragment, B. subtilis, UniProt P06534 1-123, looked up, PDB 1QMP (Spo0A receiver domain) was the search probe; also called Spo0A receiver domain; A3; source: E. coli BL21 (DE3) pLysS, purified (HisTrap IMAC, TEV cleavage, reverse IMAC, Superdex 75 SEC); not shown: His6, N-terminal, cleaved) MEKIKVCVADDNRELVSLLSEYIEGQEDMEVIGVAYNGQECLSLFKEKDPDVLVLDIIMPHLDGLAVLERLRESDLKKQPNVIMLTAFGQEDVTKKAVDLGASYFILKPFDMENLVGHIRQVS",
,B1,binds
